Data on three compounds can be found in patent US20180296707A1, “PHARMACEUTICAL FORMULATION AND METHOD OF PREPARING THE SAME” (SeeCure Taiwan Co., Ltd., priority 2017, published 2018).

Series [1] in a line: PET/CT imaging, tumor/muscle count density in colorectal tumor models.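 Also: human colorectal tumors grown on the hind legs of athymic nude mice, imaged by micro-PET/CT 21 to 28 days post inoculation, once tumors reached roughly 0.5 cm across.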 To be noted: athymic nude, tumor/muscle, 500 uCi/mouse, total radioactivity, 500 μCi/mouse iv. In kind it is in vivo, athymic nude mice.
Protocol: (§1) Briefly, athymic nude mice (15±2 g) bearing human tumors (at hind legs) derived from the colorectal and pancreatic cell line were used for imaging studies. Studies were performed 21 to 28 days after inoculation when tumors were approximately 0.5 cm in diameter. Scintigraphic images were obtained either from a micro-PET (Inveon) embedded in the gantries coordinate PET/CT data acquisition. […] The static images were obtained at 0.5, 1 and 2 hrs.
The next series relates to human colorectal tumor. The description is as above. In kind it is in vivo, athymic nude mice. To be noted: 500 μCi/mouse iv.
Another series deals with human pancreatic tumor. The series can be described thus: PET/CT imaging, tumor/muscle count density in pancreatic tumor models. To be noted: human pancreatic-tumor bearing mouse, FIG. 12.
For the next series, the target named is SSTR2 (Homo sapiens, UniProt P30874). To be noted: background statement; cited from earlier work.
SSTR2, sequence (P30874 whole entry, species assumed): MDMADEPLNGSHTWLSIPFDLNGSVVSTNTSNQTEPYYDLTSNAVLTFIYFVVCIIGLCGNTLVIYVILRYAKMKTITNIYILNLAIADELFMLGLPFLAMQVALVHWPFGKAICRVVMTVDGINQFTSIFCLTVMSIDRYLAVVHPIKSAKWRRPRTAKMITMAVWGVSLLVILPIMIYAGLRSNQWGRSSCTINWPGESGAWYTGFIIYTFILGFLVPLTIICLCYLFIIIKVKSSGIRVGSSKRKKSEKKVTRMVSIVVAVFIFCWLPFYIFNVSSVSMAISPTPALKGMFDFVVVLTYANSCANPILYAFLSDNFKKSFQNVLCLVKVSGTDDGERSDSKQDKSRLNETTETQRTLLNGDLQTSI
The target in the next series is SSTR3 (Homo sapiens, UniProt P32745). To be noted: background statement; cited from earlier work.
SSTR3, sequence (P32745 whole entry, species assumed): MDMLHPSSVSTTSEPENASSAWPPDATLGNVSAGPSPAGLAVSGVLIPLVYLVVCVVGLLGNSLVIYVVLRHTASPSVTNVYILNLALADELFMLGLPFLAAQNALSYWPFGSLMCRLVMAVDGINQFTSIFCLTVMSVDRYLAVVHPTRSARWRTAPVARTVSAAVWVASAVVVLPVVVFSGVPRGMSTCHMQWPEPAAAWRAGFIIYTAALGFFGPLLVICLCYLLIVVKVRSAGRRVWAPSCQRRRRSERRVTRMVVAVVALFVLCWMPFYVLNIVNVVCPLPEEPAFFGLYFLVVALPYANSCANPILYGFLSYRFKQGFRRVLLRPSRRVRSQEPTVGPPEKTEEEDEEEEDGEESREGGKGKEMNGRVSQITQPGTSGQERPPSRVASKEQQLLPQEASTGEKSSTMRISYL

Each structure is given as a SMILES string.

Protocol for human colorectal tumor: as §1
Protocol for human pancreatic tumor: as §1

Regarding `C[C@@H](O)[C@H](NC(=O)[C@@H]1CSSC[C@H](NC(=O)[C@@H](Cc2ccccc2)NC(=O)CN2CCN(CC(=O)O)CCN(CC(=O)O)CCN(CC(=O)O)CC2)C(=O)N[C@@H](Cc2ccc(O)cc2)C(=O)N[C@H](Cc2c[nH]c3ccccc23)C(=O)N[C@@H](CCCCN)C(=O)N[C@@H]([C@@H](C)O)C(=O)N1)C(=O)O` [^68Ga-DOTATATE, metal not drawn], in series [1] (colorectal tumor-bearing mice, dynamic images 0 to 30 minutes, read-out: average tumor/muscle (T/M) count density ratios, approximate range), the tissue to tissue ratio turned out to be 1.2. Further, the tissue to tissue ratio at 15 s in series [1] (frame 0, midpoint 15 sec) amounted to 1.2. Besides, the tissue to tissue ratio at 0.5 min in series [1] (frame 1, midpoint 30 sec) stood at 1.05. In series [1] (frame 2, midpoint 45 sec), the tissue to tissue ratio at 45 s was determined as 1.26. Further, in series [1] (frame 3, midpoint 60 sec), the tissue to tissue ratio at 1 min came out at 1.27. The tissue to tissue ratio at 0.025 h in series [1] (frame 4, midpoint 90 sec) turned out to be 1.24. In addition, the tissue to tissue ratio at 2 min in series [1] (frame 5, midpoint 120 sec) amounted to 1.3. Further, the tissue to tissue ratio at 0.05 h in series [1] (frame 6, midpoint 180 sec) was determined as 1.21. In series [1] (frame 7, midpoint 240 sec), the tissue to tissue ratio at 4 min is 1.3. In addition, the tissue to tissue ratio at 5 min in series [1] (frame 8, midpoint 300 sec) turned out to be 1.3. In series [1] (frame 9, midpoint 360 sec), the tissue to tissue ratio at 0.1 h came out at 1.23. Further, in series [1] (frame 10, midpoint 540 sec), the tissue to tissue ratio at 0.15 h was found to be 1.25. Further, in series [1] (frame 11, midpoint 720 sec), the tissue to tissue ratio at 0.2 h was determined as 1.3. Besides, the tissue to tissue ratio at 0.25 h in series [1] (frame 12, midpoint 900 sec) worked out at 1.29. The tissue to tissue ratio at 20 min in series [1] (frame 13, midpoint 1200 sec) was 1.42. The tissue to tissue ratio at 25 min in series [1] (frame 14, midpoint 1500 sec) stood at 1.44. Further, the tissue to tissue ratio at 0.5 h in series [1] (frame 15, midpoint 1800 sec) came out at 1.55. The Muscle count density stood at 0.242 with human colorectal tumor (frame 0, midpoint 15 sec); 0.273 in the series on human colorectal tumor (frame 1, midpoint 30 sec); 0.237 with human colorectal tumor (frame 2, midpoint 45 sec); 0.255 in the series on human colorectal tumor (frame 3, midpoint 60 sec); 0.238 with human colorectal tumor (frame 4, midpoint 90 sec); 0.227 in the series on human colorectal tumor (frame 5, midpoint 120 sec). For the same compound, the Muscle count density worked out at 0.235 with human colorectal tumor (frame 6, midpoint 180 sec); 0.233 in the series with human colorectal tumor (frame 7, midpoint 240 sec); 0.231 with human colorectal tumor (frame 8, midpoint 300 sec); 0.232 with human colorectal tumor (frame 9, midpoint 360 sec); 0.230 in the series with human colorectal tumor (frame 10, midpoint 540 sec); 0.231 with human colorectal tumor (frame 11, midpoint 720 sec). The Muscle count density in the series with human colorectal tumor (frame 12, midpoint 900 sec) worked out at 0.227; in the series on human colorectal tumor (frame 13, midpoint 1200 sec) it was 0.206; with human colorectal tumor (frame 14, midpoint 1500 sec) it was 0.200; with human colorectal tumor (frame 15, midpoint 1800 sec), 0.180. For the same compound, the Tumor count density in the series with human colorectal tumor (frame 0, midpoint 15 sec) came to 0.290; in the series with human colorectal tumor (frame 1, midpoint 30 sec) it was 0.286; with human colorectal tumor (frame 2, midpoint 45 sec), 0.298; in the series with human colorectal tumor (frame 3, midpoint 60 sec) it was 0.324; with human colorectal tumor (frame 4, midpoint 90 sec), 0.296; in the series with human colorectal tumor (frame 5, midpoint 120 sec), 0.296. Also, the Tumor count density is on record as 0.284 in the series with human colorectal tumor (frame 6, midpoint 180 sec); 0.303 in the series on human colorectal tumor (frame 7, midpoint 240 sec); 0.300 in the series on human colorectal tumor (frame 8, midpoint 300 sec); 0.286 in the series on human colorectal tumor (frame 9, midpoint 360 sec); 0.287 in the series with human colorectal tumor (frame 10, midpoint 540 sec); 0.300 in the series on human colorectal tumor (frame 11, midpoint 720 sec). In addition, the Tumor count density amounted to 0.294 with human colorectal tumor (frame 12, midpoint 900 sec); 0.292 with human colorectal tumor (frame 13, midpoint 1200 sec); 0.288 with human colorectal tumor (frame 14, midpoint 1500 sec); 0.279 in the series with human colorectal tumor (frame 15, midpoint 1800 sec).
Take `O=C([O-])CN1CCN(CC(=O)[O-])CCN(CC(=O)O)CCN(CC(=O)[O-])CC1.[68Ga+3]` [^68Ga-DOTA]: in the series on human pancreatic tumor, the “bladder uptake (PET/CT)” value was “high bladder uptake”, the “clearance (PET/CT)” value is “fast clearance” and the “visualization of neuroendocrine tumors by PET/CT” value was “could not be used to visualize neuroendocrine tumors”.
For `C[C@@H](O)[C@@H]1NC(=O)[C@H](CCCCN)NC(=O)[C@@H](Cc2c[nH]c3ccccc23)NC(=O)[C@H](Cc2ccccc2)NC(=O)[C@@H](NC(=O)[C@H](N)Cc2ccccc2)CSSC[C@@H](C(=O)N[C@H](CO)[C@@H](C)O)NC1=O` [octreotide], the “affinity to SSTR2 subtype” value at SSTR2 is “high affinity”. The “affinity to SSTR3 subtype” value at SSTR3 was “low affinity”.
